From publication PMC11625884

Biological target: AMBRA1^WD40 (UniProt Q9C0C7)
Assay: co-IP; AMBRA1 antibody (Proteintech) coupled to Dynabeads, mixed with lysate of SHSY5Y cells overexpressing AMBRA1 constructs; washed; western blot for the protein of interest

UniProt Q9C0C7, sequence (Q9C0C7 whole entry): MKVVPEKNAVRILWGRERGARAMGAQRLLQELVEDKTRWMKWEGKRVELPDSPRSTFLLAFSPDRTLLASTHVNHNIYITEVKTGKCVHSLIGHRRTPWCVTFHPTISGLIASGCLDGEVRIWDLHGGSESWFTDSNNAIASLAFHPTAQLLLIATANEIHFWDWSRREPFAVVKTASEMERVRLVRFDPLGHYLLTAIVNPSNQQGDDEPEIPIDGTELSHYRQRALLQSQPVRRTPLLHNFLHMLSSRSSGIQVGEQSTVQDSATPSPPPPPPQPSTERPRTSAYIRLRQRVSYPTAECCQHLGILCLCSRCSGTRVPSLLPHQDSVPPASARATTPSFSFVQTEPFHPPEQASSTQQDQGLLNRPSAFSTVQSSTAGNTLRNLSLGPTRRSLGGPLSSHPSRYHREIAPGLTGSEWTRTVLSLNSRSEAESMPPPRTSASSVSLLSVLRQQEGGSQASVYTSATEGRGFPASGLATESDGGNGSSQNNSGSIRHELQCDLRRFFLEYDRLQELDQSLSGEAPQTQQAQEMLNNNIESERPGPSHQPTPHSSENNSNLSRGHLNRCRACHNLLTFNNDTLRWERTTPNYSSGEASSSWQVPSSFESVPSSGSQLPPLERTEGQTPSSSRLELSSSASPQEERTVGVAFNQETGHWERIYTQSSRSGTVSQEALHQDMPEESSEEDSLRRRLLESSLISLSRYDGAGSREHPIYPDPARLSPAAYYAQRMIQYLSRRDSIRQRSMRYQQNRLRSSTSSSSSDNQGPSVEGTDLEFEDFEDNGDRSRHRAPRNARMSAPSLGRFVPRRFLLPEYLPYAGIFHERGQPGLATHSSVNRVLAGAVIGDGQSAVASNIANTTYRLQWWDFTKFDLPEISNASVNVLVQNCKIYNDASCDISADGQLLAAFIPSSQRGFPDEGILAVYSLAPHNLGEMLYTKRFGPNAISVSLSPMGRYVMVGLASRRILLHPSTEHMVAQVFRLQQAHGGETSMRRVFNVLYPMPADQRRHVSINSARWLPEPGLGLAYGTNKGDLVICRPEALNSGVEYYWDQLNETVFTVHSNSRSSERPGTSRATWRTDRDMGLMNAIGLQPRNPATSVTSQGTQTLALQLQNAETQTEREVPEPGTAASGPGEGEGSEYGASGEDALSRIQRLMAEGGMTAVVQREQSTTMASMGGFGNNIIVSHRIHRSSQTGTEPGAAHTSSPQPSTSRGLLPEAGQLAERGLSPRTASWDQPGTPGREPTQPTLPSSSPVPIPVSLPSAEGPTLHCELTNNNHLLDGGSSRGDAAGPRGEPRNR

fold change of the AMBRA1/DDB1 interaction against AMBRA1^WT: 0.5 fold
Substance: DDB1 (from UniProt Q16531 1-1140) (natural protein)
